# According to patent US20190127480A1 (Regeneron, published 2019):
# Biological target: T1, Soluble heterodimeric CD3 protein (hCD3-epsilon/hCD3-delta) with a human Fc tag (hFcΔAdp/hFc) or a mouse Fc … (human, UniProt P07766 23-126; P04234 22-105)
# T1 construct: also called hCD3ε/δ; not shown: Fc tag: human (hFcΔAdp/hFc); which tag was used in Ta
# Experiment: SPR Biacore, 25 C, antibody-capture format
# Method: (§1) Measurements were conducted on a T200 Biacore™ instrument.
# Soluble heterodimeric CD3 protein (hCD3-epsilon/hCD3-delta; SEQ ID NOs:1652/1653) with either a human Fc tag (hFcΔAdp/hFc; SEQ ID NOs:1683/1684) or a mouse Fc tag (mFcΔAdp/mFc; SEQ ID NOs:1685/1686) was injected over the antibody captured surface and the binding response was recorded. Heterodimeric CD3 protein was purified using the method described in Davis et al. (US2010/0331527).
# (§2) Kinetic association (kₐ) and dissociation (kd) rate constants were determined by processing and fitting the data to a 1:1 binding model using Scrubber 2.0 curve fitting software. Binding dissociation equilibrium constants (KD) and dissociative half-lives (t₁₁₂) were calculated from the kinetic rate constants as: KD (M)=kd/kₐ; and t_{1/2} (min)=(ln 2/(60*kd). NT=not tested; NB=no binding observed.
# T1 sequence (P07766 23-126 limits assumed, stated change not applied, chain 1 of 2): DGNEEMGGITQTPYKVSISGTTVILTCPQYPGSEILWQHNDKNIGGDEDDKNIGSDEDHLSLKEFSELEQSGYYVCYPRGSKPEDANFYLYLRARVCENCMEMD
# T1 sequence (P04234 22-105 limits assumed, stated change not applied, chain 2 of 2): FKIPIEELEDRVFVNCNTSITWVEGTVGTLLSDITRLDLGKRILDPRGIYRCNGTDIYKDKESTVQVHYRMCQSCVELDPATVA
Binder,Kd,T½,koff,kon
"H2M2690N (antibody, V domains shown, Hybridoma antibody, human variable regions, mouse IgG2 Fc) VH: EVQLVESGGGLVQPGRSLRLSCAASGFTFDDYTMHWVRQAPGKGLEWVSGISWNSGSIGYADSVKGRFTISRDNAKKSLYLQMNSLRAEDTALYYCAKDNSGYGHYYYGMDVWGQGTTVTVAS VL: EIVMTQSPATLSVSPGERATLSCRASQSVSSNLAWYQQKPGQAPRLLIYGASTRATGIPARFSGSGSGTEFTLTISSLQSEDFAVYYCQHYINWPLTFGGGTKVEIK",20.9 nM,57 min,0.000202 s⁻¹,9700 M⁻¹ s⁻¹
"H1M2712N (antibody, V domains shown, Mouse IgG1 Fc form) VH: EVQLVESGGGLVQPGGSLRLSCAATGFTFDDFTMHWVRQAPGKGLEWVSGISWNSGSIGYVDSVKGRFTISRDNAKNSLYLQMNSLRAEDTALYYCAKDNSGYGYYYYGMDVWGQGTTVTVSS VL: EIVMTQSPATLSVSPGERATLSCRASHSVSRNSAWYQQKPGQAPRLLIYGASTRATGIPARFSGSGSGTEFTLTISSLQSEDFAIYYCQQYNNWPLTFGGGTKVEIK",23.5 nM,53 min,0.000219 s⁻¹,9320 M⁻¹ s⁻¹
"H2M2708N (antibody, V domains shown, Hybridoma antibody, human variable regions, mouse IgG2 Fc) VH: QVQLVESGGGVVQPGRSLRLSCAASGFTFRSFGMHWVRQAPGRGLEWVAMIYFDGKNKYYADSVRGRFTISRDNSKNTLYLEMSSLRAEDTAVYFCARGPGYNWLDPWGQGTLVTVSS VL: EIVMTQSPATLSVSPGERVTLSCRASQSISRNLAWYQQKPGQAPRLLIYGASTRATGVPARFSGSGSGTEFTLTISSLQSEDFAVFHCQQYNNRPLTFGGGTEVEIK",8.82 nM,19 min,0.000612 s⁻¹,69400 M⁻¹ s⁻¹
"H2M2707N (antibody, V domains shown, Hybridoma antibody, human variable regions, mouse IgG2 Fc) VH: QVQLVESGGGVVQPGRSLRLSCIASGFTFRSYGMHWVRQAPGKGLEWVAMIYYDGNNKYYADSVRGRFTISRDNSKNTLYLQMNSLRADDTAVYFCARGPGYNWLDPWGQGTLVTVSS VL: EIVMTQSPATLSVSPGERATLSCRASQSVSSNLAWYQQKPGQAPRLLIYGASTRATGIPARFSGSGSGTEFTLTISSLQSEDFAVYYCQQYNNRPLTFGGGTKVEIK",63.5 nM,6 min,0.00187 s⁻¹,29500 M⁻¹ s⁻¹
"H2M2774N (antibody, V domains shown, Hybridoma antibody, human variable regions, mouse IgG2 Fc) VH: QVQLVESGGGVVQPGRSLRLSCVASGFTFRSYGMHWVRQAPGKGLQWVAMIYYDGKNKYYADSVRGRFTISRDNSKNTLYLQMNSLRAEDTAMYFCARGPGYNWLDPWGQGTLVTVSS VL: EIVMTQSPATLSVSPGERATLSCRASQRISSNLAWYQQKPGQAPRLLIYGASTRATGSPARFSGSGSGTEFTLTISSLQSEDVAVYYCQQHNNWPLTFGGGTKVEIK",11.8 nM,13 min,0.000918 s⁻¹,77900 M⁻¹ s⁻¹
"H2M2711N (antibody, V domains shown, Hybridoma antibody, human variable regions, mouse IgG2 Fc) VH: QVQLVESGGGVVQPGRSLRLSCAASGFTFRSFGMHWVRQAPGRGLEWVAMIYFDGKNKYYADSVRGRFTISRDNSKNTLYLEMSSLRAEDTAVYFCARGPGYNWLDPWGQGTLVTVSS VL: EIVMTQSPATLSVSPGERATLSCRASQSVSRNLAWYQQKPGQAPRLLIYGASTRATGVPARFSGSGSGTEFTLTISSLQSEDFAVFHCQQYNNRPLTFGGGTEVEIK",11.4 nM,15 min,0.000767 s⁻¹,67200 M⁻¹ s⁻¹
"H2M2775N (antibody, V domains shown, Hybridoma antibody, human variable regions, mouse IgG2 Fc) VH: QVQLVESGGGVVQPGRSLRLSCAASGFTFRSFGMHWVRQAPGRGLEWVAMIYFDGKNKYYADSVRGRFTISRDNSKNTLYLEMSSLRAEDTAVYFCARGPGYNWLDPWGQGTLVTVSS VL: EIVMTQSPATLSVSPGERVILSCRASQSISRNLAWYQQKPGQAPRLLIYGATTRATGVPARFSGSGSGTEFTLTISSLQSEDFAVFYCQQYNNRPLTFGGGTEVEIK",8.98 nM,18 min,0.000626 s⁻¹,69700 M⁻¹ s⁻¹

# The next lines start with the values.
Kd,T½,koff,kon,Binder
4.18 nM,4 min,0.00323 s⁻¹,773000 M⁻¹ s⁻¹,"H2M2689N (antibody, V domains shown, Hybridoma antibody, human variable regions, mouse IgG2 Fc) VH: QVQLVESGGGVVQPGRSLRLSCAASGFTFSRKGMHWVRQAPVKGLEWVAVISYDGSNKYYADSVKGRFTISRDNSKNTLYLQMNSLTAEDTAVYYCAKEGGHDYGGTFDYWGQGTLVTVSS VL: not shown"
43.9 nM,7 min,0.00163 s⁻¹,37000 M⁻¹ s⁻¹,"H2M2777N (antibody, V domains shown, Hybridoma antibody, human variable regions, mouse IgG2 Fc) VH: QVQLVESGGGVVQPGRSLRLSCIASGFTFRSYGMHWVRQAPGKGLEWVAMIYYDGNNKYYADSVRGRFTISRDNSKNTLYLQMNSLRADDTAVYFCARGPGYNWLDPWGQGTLVTVSS VL: EIVMTQSPATLSVSPGERATLSCRASQSVSSNLAWYQQKPGQAPRLLIYGASTRATGIPARFSGSGSGTEFTLTISSLQSEDFAVYYCQQYNNRPLTFGGGTKVEIK"
20.1 nM,56 min,0.000207 s⁻¹,10300 M⁻¹ s⁻¹,"H2M2691N (antibody, V domains shown, Hybridoma antibody, human variable regions, mouse IgG2 Fc) VH: EVQLVESGGGLVQPGRSLRLSCAASGFTFDDYTMHWVRQAPGKGLEWVSGISWNSGSIGYADSVKGRFTISRDNAKKSLYLQMNSLRAEDTALYYCAKDNSGYGHYYYGMDVWGQGTTVTVAS VL: EIVMTQSPATLSVSPGERATLSCRASQSVSSNLAWYQQKPGQAPRLLIYGASTRATGIPARFSGSGSGTEFTLTISSLQSEDFAVYYCQHYINWPLTFGGGTKVEIK"
53.9 nM,27 min,0.000434 s⁻¹,8050 M⁻¹ s⁻¹,"H1M2692N (antibody, V domains shown, Hybridoma antibody, human variable regions, mouse IgG1 Fc) VH: EVQLVESGGGLVQPGGSLRLSCAASGFSFDDYTMHWVRQPPGKGLEWVSGISWNSGSIGYADSVKGRFTISRDNAKNSLYLQMNSLRAGDTALYYCAKDNSGYGYYYYYGMDVWGQGTTVTVSS VL: EIVMTQSPATLSVSPGERATLSCRASQSVSSNLAWYQQKPGQAPRLLIYGASTRATGIPARFSGSGSGTEFTLTISSLQSEDFAVYYCQQYYNWPLTFGGGTKVEIK"
9.54 nM,18 min,0.000651 s⁻¹,68200 M⁻¹ s⁻¹,"H2M2885N (antibody, V domains shown, Hybridoma antibody, human variable regions, mouse IgG2 Fc) VH: QVQLVESGGGVVQPGRSLRLSCAASGFTFRSFGMHWVRQAPGRGLEWVAMIYFDGKNKYYADSVRGRFTISRDNSKNTLYLEMSSLRAEDTAVYFCARGPGYNWLDPWGQGTLVTVSS VL: EIVMTQSPATLSVSPGERVILSCRASQSISRNLAWYQQKPGQAPRLLIYGATTRATGVPARFSGSGSGTEFTLTISSLQSEDFAVFYCQQYNNRPLTFGGGTEVEIK"
135 nM,3 min,0.00444 s⁻¹,32900 M⁻¹ s⁻¹,"H2M2706N (antibody, V domains shown, Hybridoma antibody, human variable regions, mouse IgG2 Fc) VH: QVQLVESGGGVVQPGRSLRLSCAASGFTFRSYAMHWVRQAPGKGLEWVAMVYYDGNNQYYADSVRGRFTISRDNSKNTLYLQMNSLRADDTAVYFCARGPGYNWLDPWGQGTLVTVSS VL: EIVMTQSPATLSVSPGERATLSCRASQSVSRNLAWYQQKPGQAPRLLIYGASTRATGIPARFSGSGSGTDFTLTISSLQSEDFAVYYCQQYNNWPLTFGGGTKVVIK"
11.2 nM,15 min,0.000753 s⁻¹,67200 M⁻¹ s⁻¹,"H2M2710N (antibody, V domains shown, Hybridoma antibody, human variable regions, mouse IgG2 Fc) VH: QVQLVESGGGVVQPGRSLRLSCAASGFTFRSFGMHWVRQAPGRGLEWVAMIYFDGKNKYYADSVRGRFTISRDNSKNTLYLEMSSLRAEDTAVYFCARGPGYNWLDPWGQGTLVTVSS VL: EIVMTQSPATLSVSPGERATLSCRASQSVSRNLAWYQQKPGQAPRLLIYGASTRATGVPARFSGSGSGTEFTLTISSLQSEDFAVFHCQQYNNRPLTFGGGTEVEIK"
8.96 nM,18 min,0.000653 s⁻¹,72900 M⁻¹ s⁻¹,"H2M2886N (antibody, V domains shown, Hybridoma antibody, human variable regions, mouse IgG2 Fc) VH: QVQLVESGGGVVQPGRSLRLSCAASGFTFRSFGMHWVRQAPGRGLEWVAMIYFDGKNKYYADSVRGRFTISRDNSKNTLYLEMSSLRAEDTAVYFCARGPGYNWLDPWGQGTLVTVSS VL: EIVMTQSPATLSVSPGERVILSCRASQSISRNLAWYQQKPGQAPRLLIYGATTRATGVPARFSGSGSGTEFTLTISSLQSEDFAVFYCQQYNNRPLTFGGGTEVEIK"

# Biological target: T2, Soluble heterodimeric CD3 protein (hCD3-epsilon/hCD3-delta) with either a human Fc tag (hFcΔAdp/hFc) or a … (human, UniProt P07766 23-126; P04234 22-105)
# T2 construct: also called hCD3ε/δ; not shown: Fc tag: human (hFcΔAdp/hFc)
# Experiment: SPR Biacore 25C antigen-capture
# Method: as §1
# In the antigen-capture format, heterodimeric CD3 protein was captured using a rabbit anti-mouse Fc or mouse anti-human Fc and the respective antibodies were injected over the captured antigen.
# as §2
# T2 sequence (P07766 23-126 limits assumed, stated change not applied, chain 1 of 2): as the sequence (P07766 23-126 limits assumed, stated change not applied, chain 1 of 2) above
# T2 sequence (P04234 22-105 limits assumed, stated change not applied, chain 2 of 2): as the sequence (P04234 22-105 limits assumed, stated change not applied, chain 2 of 2) above
Kd,T½,koff,kon,Binder
0.0583 nM,116 min,9.97e-05 s⁻¹,1.71e+06 M⁻¹ s⁻¹,"H2M2689N (antibody, mouse IgG2, V domains shown, H2M: mouse IgG2 Fc, human variable regions; divalent) VH: QVQLVESGGGVVQPGRSLRLSCAASGFTFSRKGMHWVRQAPVKGLEWVAVISYDGSNKYYADSVKGRFTISRDNSKNTLYLQMNSLTAEDTAVYYCAKEGGHDYGGTFDYWGQGTLVTVSS VL: not shown"
,193 min,,,"H1M3544N (antibody, mouse IgG1, V domains shown, H1M: mouse IgG1 Fc, human variable regions; divalent) VH: EVQLVESGGGLVQPGRSLRLSCAASGFTFDDYTMHWVRQVPGKGLEWVSGISWNSGSLAYADSVKGRFTISRDNAKNSLYLQMNSLHPEDTALYYCVKDGSGYGHYSYYGLDVWGQGTTVTVSS VL: not shown"
0.0938 nM,941 min,1.23e-05 s⁻¹,128000 M⁻¹ s⁻¹,"H2M2779N (antibody, V domains shown, H2M: mouse IgG2 Fc, human variable regions; divalent) VH: EVQLVESGGGLVQPGGSLRLSCAATGFTFDDFTMHWVRQAPGKGLEWVSGISWNSGSIGYVDSVKGRFTISRDNAKNSLYLQMNSLRAEDTALYYCAKDNSGYGYYYYGMDVWGQGTTVTVSS VL: not shown"
